pKd: −log10 of the molar value.
Columns and labels:
VRC34.01_combo1 Fab = assay: BLI; settings: n = 3 independent experiments; parent: est. 1.0; read off a plot
[1] = molecular target: fusion peptide V1 (ITC peptide) (HIV-1); assay: ITC
[2] = molecular target: fusion peptide V1 (ITC peptide); assay: ITC; settings: parent: est. 33; read off a plot
[3] = molecular target: BG505 SOSIP trimer with FP v3 (AIGLGAMF); assay: yeast display FACS sort with NGS; settings: Round 3 high-affinity sort, read off a plot
[4] = molecular target: BG505 SOSIP trimer with FP Thai (AVGIGAMI); assay: yeast display FACS sort with NGS; settings: Round 3 high-affinity sort, read off a plot
[5] = molecular target: BG505 SOSIP trimer with FP v1 ([…]); assay: yeast display FACS sort with NGS; settings: Round 3 high-affinity sort, VH-SSM library; parent: est. 1.8; read off a plot
[6] = molecular target: fusion peptide FP_v1 (V1: […]) (HIV-1); assay: ITC
[7] = VH-SSM library, parent: est. 1.4
[8] = VL-SSM library, parent: est. 0.4

With “His-tagged fusion peptide (residue 512-521), wild type (BLI peptide) A512G” the ratio to parent (VRC34.01_combo1 Fab) was 0.88.
“His-tagged fusion peptide (residue 512-521), wild type (BLI peptide) A517G” gave a ratio to parent (VRC34.01_combo1 Fab) of 0.97.
For “His-tagged fusion peptide (residue 512-521), wild type (BLI peptide) F519G”, the ratio to parent (VRC34.01_combo1 Fab) was 0.82.
With “His-tagged fusion peptide (residue 512-521), wild type (BLI peptide) G514A” the ratio to parent (VRC34.01_combo1 Fab) was 0.97.
Substance “His-tagged fusion peptide (residue 512-521), wild type (BLI peptide) G516A” has a ratio to parent (VRC34.01_combo1 Fab) of 0.14.
“His-tagged fusion peptide (residue 512-521), wild type (BLI peptide) I515A” showed a ratio to parent (VRC34.01_combo1 Fab) of 0.12.
In the case of “His-tagged fusion peptide (residue 512-521), wild type (BLI peptide) I515G”, the ratio to parent (VRC34.01_combo1 Fab) was 0.01.
For “His-tagged fusion peptide (residue 512-521), wild type (BLI peptide) V513A”, the ratio to parent (VRC34.01_combo1 Fab) was 0.47.
“His-tagged fusion peptide (residue 512-521), wild type (BLI peptide) V513G” showed a ratio to parent (VRC34.01_combo1 Fab) of 0.01.
With “His-tagged fusion peptide (residue 512-521), wild type (BLI peptide) V518A” the ratio to parent (VRC34.01_combo1 Fab) was 0.97.
In the case of “His-tagged fusion peptide (residue 512-521), wild type (BLI peptide) V518G”, the ratio to parent (VRC34.01_combo1 Fab) was 0.83.
With VRC34.01 (template antibody), IgG the pKd [1] was 7.48.
For VRC34.01 (template antibody), IgG H:E2K, the pKd [2] was 7.57.
With “VRC34.01 (template antibody), IgG H:E2K; H:A33P; H:T59F” the pKd [2] was 8.66.
For “VRC34.01 (template antibody), IgG H:T59F”, the pKd [2] was 8.12.
VRC34.01 Fab H:A33P showed an enrichment [3, 7] of 55.
Work on VRC34.01 Fab H:K12A yielded an enrichment ([4]; VH-SSM library, parent: est. 0.7) of 450.
Substance VRC34.01 Fab H:T58Q has an enrichment [5] of 400.
VRC34.01 Fab H:T59F showed an enrichment [3, 7] of 480.
Work on VRC34.01 Fab H:T59Y yielded an enrichment [3, 7] of 2500.
In the case of VRC34.01 Fab L:D1Y, the enrichment [4, 8] was 580.
In the case of VRC34.01 Fab L:S92T, the enrichment [4, 8] was 440 and the enrichment ([3]; VL-SSM library, parent: est. 1.7) was 110.
VRC34.01 VH_T59F, IgG (antibody) gave a fold higher affinity than VRC34.01 [1] of 4 fold.
VRC34.01-HC-E2K (antibody) gave a pKd [6] of 7.55.
With VRC34.01-HC-T59F (antibody) the pKd [6] was 8.11 and the stoichiometry N [6] was 0.8.
Work on “VRC34.01_combo1 (VH_E2K_T59F), IgG (antibody)” yielded a fold better binding than VRC34.01 [1] of 6 fold.

Reference: PMC10663459
